Data on two substances can be found in PMC3382428.

Assay [1] addresses gp130 on Ba/F3-gp130 cells (UniProt P40189).
For assay [2], the target named is gp130 on human cord blood Lin-CD34+ cells (human (endogenous in cord blood Lin-CD34+ cells)) (UniProt P40189).
Assay [3] has as its target IL-6R (Homo sapiens) (UniProt P08887). To be noted: cited from earlier work.

Sequence of gp130 on Ba/F3-gp130 cells (P40189 23-918): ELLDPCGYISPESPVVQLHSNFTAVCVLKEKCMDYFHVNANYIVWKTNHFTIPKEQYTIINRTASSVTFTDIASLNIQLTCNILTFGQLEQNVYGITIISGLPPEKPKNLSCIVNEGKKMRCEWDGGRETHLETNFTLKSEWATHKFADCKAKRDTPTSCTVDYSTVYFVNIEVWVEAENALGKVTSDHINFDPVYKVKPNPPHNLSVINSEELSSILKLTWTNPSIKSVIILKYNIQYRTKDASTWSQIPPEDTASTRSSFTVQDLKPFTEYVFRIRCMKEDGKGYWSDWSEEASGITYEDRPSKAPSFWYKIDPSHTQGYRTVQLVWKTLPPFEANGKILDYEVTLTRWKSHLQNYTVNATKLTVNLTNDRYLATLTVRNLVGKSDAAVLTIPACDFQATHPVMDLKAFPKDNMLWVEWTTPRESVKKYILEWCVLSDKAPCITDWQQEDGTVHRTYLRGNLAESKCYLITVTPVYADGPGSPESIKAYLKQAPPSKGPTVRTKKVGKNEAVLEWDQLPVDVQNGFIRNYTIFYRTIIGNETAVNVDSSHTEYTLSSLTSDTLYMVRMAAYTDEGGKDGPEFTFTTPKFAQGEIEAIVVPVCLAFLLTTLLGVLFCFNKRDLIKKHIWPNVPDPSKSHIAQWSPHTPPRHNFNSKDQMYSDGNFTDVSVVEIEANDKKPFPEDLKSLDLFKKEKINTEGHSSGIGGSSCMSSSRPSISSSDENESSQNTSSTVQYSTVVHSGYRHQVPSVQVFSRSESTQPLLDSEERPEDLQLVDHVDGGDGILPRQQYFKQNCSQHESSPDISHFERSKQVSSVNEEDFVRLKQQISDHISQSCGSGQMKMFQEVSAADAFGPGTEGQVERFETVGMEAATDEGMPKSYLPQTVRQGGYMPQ
Sequence of IL-6R (Homo sapiens) (P08887 20-355): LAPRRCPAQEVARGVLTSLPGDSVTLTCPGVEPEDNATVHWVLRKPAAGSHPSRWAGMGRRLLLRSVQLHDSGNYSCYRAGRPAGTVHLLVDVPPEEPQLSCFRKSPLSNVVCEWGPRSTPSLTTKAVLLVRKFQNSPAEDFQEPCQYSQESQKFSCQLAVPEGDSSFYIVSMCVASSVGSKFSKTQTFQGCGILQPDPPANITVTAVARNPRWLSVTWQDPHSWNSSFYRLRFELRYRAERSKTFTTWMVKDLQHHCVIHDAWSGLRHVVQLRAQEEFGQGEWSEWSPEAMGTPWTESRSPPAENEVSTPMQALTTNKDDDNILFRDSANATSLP
Sequence of gp130 on human cord blood Lin-CD34+ cells (human (endogenous in cord blood Lin-CD34+ cells)) (P40189 23-918): as the sequence (P40189 23-918) above
Sequence of IL-6 (P05231 30-212): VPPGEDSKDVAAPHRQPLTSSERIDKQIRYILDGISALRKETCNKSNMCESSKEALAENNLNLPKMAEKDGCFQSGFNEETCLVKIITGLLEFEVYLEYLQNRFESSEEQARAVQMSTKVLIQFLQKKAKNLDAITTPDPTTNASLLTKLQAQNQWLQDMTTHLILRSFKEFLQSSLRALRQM

For the substance “Hyper IL-11 (H11) (from UniProt Q14626 23-365; P20809 19-199)”, the proliferation of Ba/F3-gp130 cells (MTT, 72 h): dose of H11 for half-maximum proliferation in assay [1] lay within 800 to 900 pM. The CD235a+ (erythroid) cells in Lin-CD34+ liquid culture with 50 ng/ml H11, day 14, flow cytometry (27% with Hyper-IL-6, 20% in control culture) in assay [2] came out at 39%.

By Kd is commonly meant the constant that tells how readily two partners part at equilibrium. As to IL-6 (from UniProt P05231), in assay [3], the Kd is 1 nM.
